Measurements from the DeepSol protein solubility set.

Experiment: soluble on expression in E. coli; label from the status in PepcDB or PDB records

| Sequence | soluble on expression in E. coli |
| --- | --- |
| MSDVTVVNCPTCGKPVVWGEISPFRPFCSKRCQLIDLGEWAAEEKRIASSGDQSDSDDWSEER | not soluble |
| MSEAETGEPNGFRSCYDKLRKAVGNIPMDASKSTKLHNLSSRKISEILPNLYLSGRTVSQNSELLKEKNITTVINVSDREVVNYKNNQKFIKNYRFYAMSDTASAKFDGIIEEAVRIIHDSRSKEEGVLVHCFLGVSRSATLVAFYLISALSINWRDAVDFIHHRRFSANPNFGFLHQLKVYSTTKAKEFRNQLISERCLRMRESDKDIIKKYLPLAVFEL | not soluble |
| MSEEAQPITLEAFAEAIRELPLSAVYAKVSEIRNSIAHLRRSNSELKAFIDETCESESDKRELEGYIAENEGVIATMNDRIGLLKTEIESRGERWIEEEIEANIKVDGDEVSTSQPIINGTAGDERPRAHEDATRRPEDRQTNEEEGVYL | not soluble |
| MSEEVGAKRWYAVHTYSGYENKVKKNLEKRVESMNMTEQIFRVVIPEEEETQVKDGKAKTTVKKTFPGYVLVELIMTDESWYVVRNTPGVTGFVGSAGAGSKPNPLLPEEVRFILKQMGLKEKTIDVELEVGEQVRIKSGPFANQVGEVQEIETDKFKLTVLVDMFGRETPVEVEFDQIEKL | not soluble |
| MSEFNEKPEKLIVDGLRLDGRKFDELRPIKIEASVLKRADGSCYLEMGKNKVIAAVFGPREVHPRHLQDPSKAIIRYRYNMAPFSVEERKRPGPDRRSIEISKVSKEAFEAVIMKELFPRSAIDIFVEVLQADAGSRTACLNAASVALVDAGVPMKGMITSVAVGKADGQLVLDPMKEEDNFGEADMPFAFLIRNGKIESIALLQMDGRMTRDEVKQAIELAKKGALQIYEMQREAILRRYIEVGEEMDEITEGGEDA | soluble |
| MSEGWNIAVLGATGAMGEALLETLAERQFPVGEIYALARNESAGEQLRFGGKTITVQDAAEFDWTQAQLAFFVAGKEATAAWVEEATNSGCLVIDSSGLFALEPDVPLVVPEVNPFVLTDYRNRNVIAVPDSLTSQLLAALKPLIDQGGLSRISVTSLISASAQGKKAVDALAGQSAKLLNGIPIDEEDFFGRQLAFNMLPLLPDSEGSVREERRIVDEVRKILQDEGLMISASVVQAPVFYGHAQMVNFEALRPLAAEEARDAFAQGEDIVLSEENEFPTQVGDASGTPHLSVGCVRNDYGMPEQVQFWSVADNVRFGGALMAVKIAEKLVQEYLY | not soluble |
| MSEKPAESAAAVADSATTTAPQSGKPETALPALIDTQATAETRALYRNLAKLRYKHLLFGHEDSLAYGVHWEGDMDRSDVRDVTGANPAVYGWELGGLELGHTANLDAVNFEKMQHWIKAGYSRGGVITISWHVFNPVSGGNSWDKTPAVHELIPGGARHATLKAYLDTFVAFNEGLADVDAQGNKHYPPIIFRPWHEHNGDWFWWGKGHASEQDYIALWRFTVHYLRDEKKLRNLIYAYSPDRSRIDMANFEAGYLYGYPGDAYVDIIGLDNYWDVGHEANTASADEQKAALTASLKQLVQIARSKGKIAALTETGNNRLTIDNFWTERLLGPISADADASEIAYVMVWRNANLAREKSEQFFAPFPGQATADDFKRFYQSEVVLFEDELPPLYR | soluble |
| MSELFSERIPPQSIEAEQAVLGAVFLDPAALVPASEILIPEDFYRAAHQKIFHAMLRVADRGEPVDLVTVTAELAASEQLEEIGGVSYLSELADAVPTAANVEYYARIVEEKSVLRRLIRTATSIAQDGYTREDEIDVLLDEADRKIMEVSQRKHSGAFKNIKDILVQTYDNIEMLHNRDGEITGIPTGFTELDRMTSGFQRSDLIIVAARPSVGKTAFALNIAQNVATKTNENVAIFSLEMSAQQLVMRMLCAEGNINAQNLRTGKLTPEDWGKLTMAMGSLSNAGIYIDDTPSIRVSDIRAKCRRLKQESGLGMIVIDYLQLIQGSGRSKENRQQEVSEISRSLKALARELEVPVIALSQLSRSVEQRQDKRPMMSDIRESGSIEQDADIVAFLYRDDYYNKDSENKNIIEIIIAKQRNGPVGTVQLAFIKEYNKFVNLERRFDEAQIPPGA | soluble |
| MSELIRVPDIGNGEGEVIELLVKPGDKVEADQSLLTLESDKASMEIPSPKAGVVKSIKAKVGDTLKEGDEILELEVEGGEQPAEAKAEAAPAQPEAPKAEAPAPAPSESKPAAPAAASVQDIKVPDIGSAGKANVIEVMVKAGDTVEADQSLITLESDKASMEIPSPASGVVESVSIKVGDEVGTGDLILKLKVEGAA | not soluble |
| MSELQNPKPSSLSRDAFIATYADIYEHSPWVAEQAFNQDAGPELDQLDTLHARLSDILLNATHAQQLALINAHPDLAGKAAVKGELTQASTDEQAGAGIHLCTPDEFQRFTELNGAYKARFGFPFIMAVKGSDRHKILAAFEQRIHHSPEAEFACALAEINKIALFRLQALHASQAAAALEHHHHHH | soluble |
| MSELSDEEISLQALYDPSKKVIGDIEDGIFSTPELQPRIKTGIDNLQLVTKLVNQMRLFSSNEQIEDVPTNSLPYLLVPCFLGILHQNLMTEPGLKLDELRKSKIYMRNFLDRLRDLCLITTRLPWEDEDTEEQNLKEKPKLAVEEIRRLKLERHKKKQELKMAELRIQKQLEAVSIDEQNLRELYITQLLFWSERCYEELQAIDDELPLLKMMAERASHPHRHPAPPPATKTVPTLKPFIITRDAQQKQVFGLGYPGIPAMSVDEWYHQKFGHNPQNAPQSSAPAGAEAQESEEEVDDDEARAKAMRWDEYKDDHRRGWGNMHNKG | soluble |
| MSELYVAECNAAKARLEVETECRRIIADNYEKVLERAKEYSKKLEAPILAKICEVGYFCGAHVVRTNQVTMEMGANYYGECSIHTAEKILDRRVSEMRRQREEGLDSIRMLDDKIKFAQDNFSSVSIDGGPIEIVEKYDEEMEKLFYQNRKNKKMSQNDEQNEKIIEKNKLNGDQDHNDVMNRLEELEKLEQDNDEMEEAPIPKPFEVSNEDLQDLGKLEEVEEVEQDPTDKKLRFGMNERLLAQPGVTQKEMERLLDFLDTCDEESSDEEYDEDEEEGDDDEENLNNSVEELDSDDYASDDNIEKSNNSDQQLKSKKIETQVIKVEEIVEETVTKTTVKRKKSGVRFAQQLENVKTFHQTDTVEIKEEDSVIETKSILRSTEPTPVDRSALEPEQKELAAMSTMTFPGEIVEKNPYECEPSTSRDPAPVITEKKVSKFRASRHRN | not soluble |
| MSEMLNHVASCRLPTEWGVFTMHGFEEANGQEHVALTVGNFSDGNPVLTRIHSECLTGDALFSRKCDCGPQLEAAMRAVQTEGRGIIVYLRQEGRGIGLINKIRAYHLQDQGMDTVEANLALGLPVDARDFRLAQSIYEYLGIRSVKLLTNNPEKIQTLKDAGINVVERIPLHVGENLENKRYLQTKADKLGHLMSE | not soluble |
| MSEPILKVENLKKYFPVRRGFLSALRGEPQKFVKAVDGVSFEIYKQQVFALVGESGCGKTTTGKLIVKLLEPTDGKIYLEGQDVTELRTKEEIKAYRRKVQMIFQDPFSSMNPRFRIYDVLEEPLLIHGIGETRAEREELIYKALEMVKITPPEEYVGRFPHMLSGGQRQRVAIARALILNPTFVVADEPVSMLDVSIRAEILELMKELKEKMGVTYLYITHDLSTARYFADWIAVMYLGRIVEMGPAKEIIDNPLHPYTRALLAAVPEPIPERKDVIKELPIKGEVPSAVNIPSGCRFHPRCIYFKKGLCDVKQPQLIEYSHNHWVECHRVGEI | soluble |
| MSEQSFSNANKGSETLNGSAASFVSHKRFYDDTNFPKGFKRSGDFTSKEAELLELHGHAMKNLAEGKTLPVTADEAQFVEVIKGNIAPSSLLEHIWLKYRKLARGKPFYAVVGTVHLPATKPEVEVEPEAAFDVDVEIEDDVQDEAEPEDKA | soluble |
| MSERLSITPLGPYIGAQISGADLTRPLSDNQFEQLYHAVLRHQVVFLRDQAITPQQQRALAQRFGELHIHPVYPHAEGVDEIIVLDTHNDNPPDNDNWHTDVTFIETPPAGAILAAKELPSTGGDTLWTSGIAAYEALSVPFRQLLSGLRAEHDFRKSFPEYKYRKTEEEHQRWREAVAKNPPLLHPVVRTHPVSGKQALFVNEGFTTRIVDVSEKESEALLSFLFAHITKPEFQVRWRWQPNDIAIWDNRVTQHYANADYLPQRRIMHRATILGDKPFYRAGLEHHHHHH | soluble |
| MSESFAELFEESLKSLDMQPGAIITGIVVDIDGDWVTVHAGLKSEGVIPVEQFYNEQGELTIKVGDEVHVALDAVEDGFGETKLSREKAKRAESWIVLEAAFAADEVVKGVINGKVKGGFTVDVNGIRAFLPGSLVDVRPVRDTTHLEGKELEFKVIKLDQKRNNVVVSRRSVLEAENSAEREALLESLQEGQQVKGIVKNLTDYGAFVDLGGVDGLLHITDMAWKRIKHPSEIVNVGDEIDVKVLKFDRERNRVSLGLKQLGEDPWVAIKARYPEGTRVMARVTNLTDYGCFAELEEGVEGLVHVSEMDWTNKNIHPSKVVQVGDEVEVQVLDIDEERRRISLGIKQCKSNPWEDFSSQFNKGDRISGTIKSITDFGIFIGLDGGIDGLVHLSDISWNEVGEEAVRRFKKGDELETVILSVDPERERISLGIKQLEDDPFSNYASLHEKGSIVRGTVKEVDAKGAVISLGDDIEGILKASEISRDRVEDARNVLKEGEEVEAKIISIDRKSRVISLSVKSKDVDDEKDAMKELRKQEVESAGPTTIGDLIRAQMENQGLEHHHHHH | soluble |
| MSEVKYKRVILKLSGEALAGEKGFGINPPVIKTVAEELKDVYDMGVQIAIVVGGGNMWRGEAGAQMGMERAQADYIGMLATIMNALALQDNLESIGVPTRVQTSIEMRQIAEPYIRRKAMRHLEKRRIVIFAGGTGSPYFSTDTTAALRAAEINADAILMAKNGVDGVYSADPNKDASAVKFDTLTHLDIINKGLQVMDTTASSLSMDNDIPVVVFNLNEPGNIRKVVAGEHIGTTVRGKLEHHHHHH | soluble |
| MSEYLAAADYLPHSAPMVLVDEVIHVDDEHAHCRVAVSREGILAPFLNAQGHLPAWFGIEIIAQTIGVWSGWHGRQSLGLQEKPRPGMLLGGRGYHCQQAIFPAGSLLDVTVMLVMRDEKIGSFEGEIAIDGEKYASGRLNTYQPDDRELNILLEQGKPL | not soluble |
| MSFDGFFLHHLTNELKENLLYGRIQKVNQPFERELVLTIRNHRKNYKLLLSAHPVFGRVQITQADFQNPQVPNTFTMIMRKYLQGAVIEQLEQIDNDRIIEIKVSNKNEIGDAIQATLIIEIMGKHSNIILVDRAENKIIESIKHVGFSQNSYRTILPGSTYIEPPKTAAVNPFTITDVPLFEILQTQELTVKSLQQHFQGLGRDTAKELAELLTTDKLKRFREFFARPTQANLTTASFAPVLFSDSHATFETLSDMLDHFYQDKAERDRINQQASDLIHRVQTELDKNRNKLSKQEAELLATENAELFRQKGELLTTYLSLVPNNQDSVILDNYYTGEKIEIALDKALTPNQNAQRYFKKYQKLKEAVKHLSGLIADTKQSITYFESVDYNLSQASIDDIEDIREELYQAGFLKSRQRDKRHKRKKPEQYLASDGTTILMVGRNNLQNEELTFKMAKKGELWFHAKDIPGSHVIIKDNLDPSDEVKTDAAELAAYYSKARLSNLVQVDMIEAKKLHKPSGAKPGFVTYTGQKTLRVTPDQAKILSMKLS | not soluble |
| MSFPLIFERSRKGRRGLKLVKAVPKAEDLIPKEHLREVPPRLPEVDELTLVRHYTGLSRRQVGVDTTFYPLGSCTMKYNPKLHEEAARLFADLHPYQDPRTAQGALRLMWELGEYLKALTGMDAITLEPAAGAHGELTGILIIRAYHEDRGEGRTRRVVLVPDSAHGSNPATASMAGYQVREIPSGPEGEVDLEALKRELGPHVAALMLTNPNTLGLFERRILEISRLCKEAGVQLYYDGANLNAIMGWARPGDMGFDVVHLNLHKTFTVPHGGGGPGSGPVGVKAHLAPYLPVPLVERGEEGFYLDFDRPKSIGRVRSFYGNFLALVRAWAYIRTLGLEGLKKAAALAVLNARYLKELLKEKGYRVPYDGPSMHEFVAQPPEGFRALDLAKGLLELGFHPPTVYFPLIVKEALMVEPTETEAKETLEAFAEAMGALLKKPKEWLENAPYSTPVRRLDELRANKHPKLTYFDEG | soluble |
